Assay results as given in US20040043401A1 (SLOAN KETTERING INSTITUTE FOR CANCER RESEARCH, published 2004).

Biological target: human prostate-specific membrane antigen (PSMA) (human, UniProt Q04609 1-750)
Assay: cell-based or functional assay

human prostate-specific membrane antigen (PSMA), sequence (Q04609 whole entry): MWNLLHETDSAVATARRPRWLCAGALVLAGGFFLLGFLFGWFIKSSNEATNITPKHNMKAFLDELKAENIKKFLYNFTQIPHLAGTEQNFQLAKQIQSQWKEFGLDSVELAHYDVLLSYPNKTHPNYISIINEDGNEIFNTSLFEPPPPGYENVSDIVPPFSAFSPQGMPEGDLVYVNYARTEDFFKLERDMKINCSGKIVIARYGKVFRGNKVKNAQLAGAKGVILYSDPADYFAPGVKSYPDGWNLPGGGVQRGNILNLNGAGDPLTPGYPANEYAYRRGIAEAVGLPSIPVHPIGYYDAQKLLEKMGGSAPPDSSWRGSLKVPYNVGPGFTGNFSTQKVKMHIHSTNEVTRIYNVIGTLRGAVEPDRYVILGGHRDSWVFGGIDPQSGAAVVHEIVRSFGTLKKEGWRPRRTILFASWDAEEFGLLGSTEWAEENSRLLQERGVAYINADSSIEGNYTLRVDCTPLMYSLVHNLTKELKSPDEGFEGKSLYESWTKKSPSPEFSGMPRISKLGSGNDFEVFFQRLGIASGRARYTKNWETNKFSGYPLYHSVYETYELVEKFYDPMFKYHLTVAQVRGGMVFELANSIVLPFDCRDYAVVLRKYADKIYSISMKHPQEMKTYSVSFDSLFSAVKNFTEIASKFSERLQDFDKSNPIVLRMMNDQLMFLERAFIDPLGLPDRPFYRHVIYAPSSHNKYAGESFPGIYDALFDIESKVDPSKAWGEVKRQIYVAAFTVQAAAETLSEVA

expansion in total cell number after re-stimulation with PSMA, seven days: 4 fold
expansion of transduced T cells on NIH3T3 cells expressing PSMA alone, seven days: 8.6 fold
B1: P28z fusion receptor (J591 scFv - human CD28 hinge, transmembrane and intracellular portions - intracellular domain of human TCR zeta) (receptor, not shown: a dimerising Fc or GST; small tags and cut ends)
chain: IEVMYPPPYLDNEKSNGTIIHVKGKHLCPSPLFPGPSKPFWVLVVVGGVLACYSLLVTVAFIIFWVRSKRSRLLHSDYMNMTPRRPGPTRKHYQPYAPPRDFAAYRSRVKFSRSADAPAYQQGQNQLYNELNLGRREEYDVLDKRRGRDPEMGGKPRRKNPQEGLYNELQKDKMAEAYSEIGMKGERRRGKGHDGLYQGLSTATKDTYDALHMQALPPR
